{"source": "patent US7495116B2", "about": "“Phospholipid derivative” (NOF Corporation, priority 2002, dated 2009)", "assay": "Determination of salt tolerant effect (clouding point, evaluation as surfactant)", "assay_type": "physicochemical", "details": "1 weight % solution in 5 weight % aqueous sodium sulfate", "protocol": "As a result of the measurement, the clouding point was not detectable even when the temperature was raised up to 80° C.", "data": [{"substance": "monomethylpolyoxyethylenecarbamyl (Molecular Weight: 2000) distearoylphosphatidylethanolamine [Comparative Synthesis Example 1]", "values": [{"measurement": "Clouding point", "result": 50.0, "unit": "°C"}]}]}
